According to article PMC8409790 (mAbs, 2021):

B1: Human single-chain (sc) IL-23 (IL-12p40(23-328)-(GGGGS)x4-IL-23p19(21-189)-TEV-FLAG-8His) (ligand)
chain: IWELKKDVYVVELDWYPDAPGEMVVLTCDTPEEDGITWTLDQSSEVLGSGKTLTIQVKEFGDAGQYTCHKGGEVLSHSLLLLHKKEDGIWSTDILKDQKEPKNKTFLRCEAKNYSGRFTCWWLTTISTDLTFSVKSSRGSSDPQGVTCGAATLSAERVRGDNKEYEYSVECQEDSACPAAEESLPIEVMVDAVHKLKYENYTSSFFIRDIIKPDPPKNLQLKPLKNSRQVEVSWEYPDTWSTPHSYFSLTFCVQVQGKSKREKKDRVFTDKTSATVICRKNASISVRAQDRYYSSSWSEWASVPCSGGGGSGGGGSGGGGSGGGGSAVPGGSSPAWTQCQQLSQKLCTLAWSAHPLVGHMDLREEGDEETTNDVPHIQCGDGCDPQGLRDNSQFCLQRIHQGLIFYEKLLGSDIFTGEPSLLPDSPVGQLHASLLGLSQLLQPEGHHWETQQIPSLSPSQPWQRLLLRFKILRSLQAFVAVAARVFAHGAATLSP
B2: Human IL-23Rα protein (receptor)
chain: GITNINCSGHIWVEPATIFKMGMNISIYCQAAIKNCQPRKLHFYKNGIKERFQITRINKTTARLWYKNFLEPHASMYCTAECPKHFQETLICGKDISSGYPPDIPDEVTCVIYEYSGNMTCTWNAGKLTYIDTKYVVHVKSLETEEEQQYLTSSYINISTDSLQGGKKYLVWVQAANALGMEESKQLQIHLDDIVIPSAAVISRAETINATVPKTIIYWDSQTTIEKVSCEMRYKATTNQTWNVKEFDTNFTYVQQSEFYLEPNIKYVFQVRCQETGKRYWQPWSSLFFHKTPETVPQVTSKAFQHDTWNSGLTVASISTGHLTSDNRGDIG

Tests used:
Assay in all cases: SPR
[1] = target: B2
[2] = target: Human IL-12Rβ1-Fc (human, UniProt P42701)
[3] = target: B1

## B1
[1]
  Kd: 0.0008 µM
[2]
  Kd: 0.019 µM

## B2
[3]
  KD with a saturating amount of tildrakizumab bound to IL-23: 0.19 µM
